In the supplement of paper PMC10567573:
± gives the standard deviation.

Test: protein stability index of a GFP-peptide fusion (GPS, HEK-293T) (PSI 1-6); higher = more stable
[1] = treatment: DMSO, c terminus: a fixed tail appended
[2] = treatment: MLN4924 1 uM, 8 h, c terminus: a fixed tail appended
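Further: 24-mer peptide tiles fused after GFP, lentivirally expressed, FACS-sorted into six equal bins by GFP/DsRed ratio, decoded by Illumina sequencing, PSI is the read-weighted mean bin number.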

Sequence | protein stability index [1] | protein stability index [2] | protein stability index (treatment: DMSO, c terminus: native) | protein stability index (treatment: MLN4924 1 uM, 8 h, c terminus: native)
QLKIRKSNQIPTEVRSKAEEVVSF [FUNDC2] | 3.9 ± 0.45 | 3.88 ± 0.25 |  | 
KADTKGFCNISLFEDLPLQEPQSP [PLAGL1] | 4.46 ± 0.14 | 4.61 ± 0.12 |  | 
LNYLRDGSVPLPESTRELGELLGE [KCTD13] | 4.5 ± 0.21 | 4.64 ± 0.24 |  | 
KEQAIWKHPQPAPAVTPDPWGVQG [PKD2L1] | 3.75 ± 0.22 | 4.07 ± 0.31 |  | 
TLHPISSEELLSLKYENDYPSVIL [ETS1] | 2.55 ± 0.17 | 2.76 ± 0.23 |  | 
KNANRPLLDEIVPVYRRDCHEEVY [ACBD3] | 3.88 ± 0.1 | 3.74 ± 0.15 |  | 
GRLGRRDEDAGLPRPVQLDETHPY [NEK8] | 4.46 ± 0.066 | 4.7 ± 0.1 |  | 
RGKLKKTEEELRRIQTQKEQAKEN [ZC2HC1C] | 5.31 ± 0.13 | 5.39 ± 0.13 |  | 
EFEQFESTIGFKLPNHRAAKRLWK [EPB41L3] | 3.17 ± 0.39 | 3.27 ± 0.61 |  | 
LLSSSEEECKDRERPMYGRDSAYQ [EMD] | 4.48 ± 0.23 | 4.51 ± 0.46 |  | 
KLTKESYPVVVAESMYGDFQEAMT [TENT5D] | 3.16 ± 0.2 | 3.41 ± 0.37 |  | 
TKLQAQHVSYRELGACVRTAVAQG [SLC25A39] | 3.05 ± 0.42 | 3.29 ± 0.32 |  | 
ITERDKRPEGYNLKDEEGKLKDLS [PPP2R2C] | 5.51 ± 0.23 | 5.54 ± 0.13 |  | 
MAAVLNAERLEVSVDGLTLSPDPE [ACBD3] | 4.41 ± 0.17 | 4.59 ± 0.17 |  | 
PHYELCTLRGTGATADFADVADDF [NETO1] | 4.69 ± 0.1 | 4.59 ± 0.25 |  | 
PYTRSIQILKDTKSITSAMNELQH [TPH1] | 2.61 ± 0.22 | 2.71 ± 0.16 |  | 
LGNLVEGLDFHRFYFENLWSRNSK [CAMK2A] | 2.2 ± 0.47 | 2.51 ± 0.24 |  | 
SGEELHELFHTIDTHNTNNLDTEE [NECAB1] | 5.12 ± 0.6 | 5.08 ± 0.68 |  | 
LASAYTGRLSMAAADIVNFLTVGS [ZBTB22] | 2.77 ± 0.28 | 3.09 ± 0.66 |  | 
LADKELVHMISWAKKIPGMRGNA [ESR2] |  |  | 2.95 ± 0.85 | 2.56 ± 0.7
DHSQRICEVWACNLDEEMKKIRQV [CNOT7] | 3.43 ± 0.2 | 3.7 ± 0.18 |  | 
ALPVPVIVSNFNYFYHRETENEEQ [KCNA4] | 3.54 ± 0.15 | 3.57 ± 0.17 |  | 
KKSELLQRITQEQEKKLSFIEALI [TRIM63] | 2.07 ± 0.3 | 2.41 ± 0.35 |  | 

Sequence | protein stability index [1] | protein stability index [2] | protein stability index (treatment: DMSO, c terminus: native) | protein stability index (treatment: MLN4924 1 uM, 8 h, c terminus: native)
DFVNLMAYDFHGSWEKVTGHNSPL [CHIT1] | 1.9 ± 0.23 | 2.06 ± 0.19 |  | 
PECGLAKKPPEESTCFERPCFKWY [ADAMTSL2] | 3.4 ± 0.42 | 2.96 ± 0.34 |  | 
REHCPENRERVVSLIEDLQRELEI [ZNF449] | 3.91 ± 0.21 | 4 ± 0.28 |  | 
RRGVSDWDLRMKLHDRGAQVIHPQ [DNAAF3] | 3.58 ± 0.092 | 3.55 ± 0.35 |  | 
YKIVKPLWTSFIQSVSYSKLLSVI [P2RY14] | 2.06 ± 0.16 | 2.36 ± 0.39 |  | 
WDLNMENRPIETYQVHDYLRSKLC [PPP2R2B] | 2.65 ± 0.34 | 2.72 ± 0.29 |  | 
SMKHTATARFQRNHRLISEILSES [SMARCE1] | 2.95 ± 0.12 | 3.24 ± 0.5 |  | 
LDFLPKDVKKEKLSPDIMKDAYVQ [TENT5D] | 3.96 ± 0.14 | 3.78 ± 0.26 |  | 
RDEVAFHTAKCEKLQKEKEELERR [MTUS2] | 5.61 ± 0.17 | 5.44 ± 0.33 |  | 
LRGALQQGEAFQRALESELQQLRA [PBXIP1] | 3.56 ± 0.24 | 3.67 ± 0.23 |  | 
DYLIQATNETNVNIPQMADTLFER [SNAP91] | 3.64 ± 0.29 | 3.75 ± 0.2 |  | 
HTKELEDKVIELHKSHRGMTPAEA [EPB41L3] | 5.2 ± 0.24 | 5.13 ± 0.16 |  | 
RQYRSIEVLIGAGYSTPADIWSTA [SRPK2] | 1.9 ± 0.37 | 2 ± 0.44 |  | 
LMDCCLIVYHPYRPLLQYVQDMGQ [CCNC] | 3.26 ± 0.83 | 3.17 ± 0.55 |  | 
SSSNEHAAPAAKTRKQAAKKVAPL [ELOA2] | 4.85 ± 0.32 | 4.92 ± 0.26 |  | 
LCRAQRERLASANLRVLVDCILRD [TEKT4] | 2.08 ± 0.58 | 2.41 ± 0.21 |  | 
LGDSGLGPWQLNVFVCRVSAVLFY [P2RY14] | 3.32 ± 0.17 | 2.84 ± 0.42 |  | 
LLEKNASVNEVDFEGRTPMHVACQ [RIPK4] | 3.83 ± 0.31 | 3.94 ± 0.16 |  | 
AYQEVFKPENISLRNKLRELCVKL [SMG5] | 2.24 ± 0.23 | 2.17 ± 0.35 |  | 
WQVLCMLSLCCWGWVSGQLRYSVV [PCDHGC5] | 3.24 ± 0.69 | 3.04 ± 0.35 |  | 
METSASSSQPQDNSQVHRETEDVD [TMEM40] | 5.54 ± 0.25 | 5.56 ± 0.32 |  | 
KMKKLGQAMEEDLIVGLQGMDLNL [HDAC6] | 3.86 ± 0.24 | 3.5 ± 0.43 |  | 
KKPPEESTCFERPCFKWYTSPWSE [ADAMTSL2] | 2.67 ± 0.14 | 2.88 ± 0.42 |  | 

Sequence | protein stability index [1] | protein stability index [2] | protein stability index (treatment: DMSO, c terminus: native) | protein stability index (treatment: MLN4924 1 uM, 8 h, c terminus: native)
KCSDCGKAFLTKTMLIVHHRTHTG [ZNF649] | 2.84 ± 0.27 | 3.05 ± 0.45 |  | 
NLESKSTIGVEFATRSIQVDGKTI [RAB11A] | 4.33 ± 0.19 | 4.27 ± 0.35 |  | 
VRKREAPAPEAESKQTEKDPGVQE [EFHC1] | 5.47 ± 0.27 | 5.61 ± 0.34 |  | 
AVFAVSAVVHEYALAVCLSFFYPV [SOAT1] | 3.23 ± 0.37 | 3.07 ± 0.23 |  | 
DQRNPAKESLETPSNGRIDIKQLI [SOAT1] | 4.13 ± 0.26 | 4.24 ± 0.23 |  | 
LRDKIMATTIDNSRVILEIDNARL [KRT15] | 2.59 ± 0.27 | 2.66 ± 0.2 |  | 
LEKKNEALKERADSLAKEIQYLKD [ATF4] | 4.53 ± 0.24 | 4.45 ± 0.056 |  | 
KSSSSSSSSSSSSSSSSSSSSSGP [TMEM40] | 5.29 ± 0.15 | 5.3 ± 0.1 |  | 
LGLRQHHCRKCGQAVCGKCSSKRS [WDFY1] | 4.28 ± 0.29 | 4.26 ± 0.29 |  | 
QWWASVGMDDFLGVYSMPAGTKVF [TLE6] | 2.23 ± 0.82 | 2.26 ± 0.45 |  | 
SVPIIGGFWETIFGNRIKRVKLIS [PHTF1] | 2.29 ± 0.23 | 1.94 ± 0.22 |  | 
EEALKDEEERAQDRIATTDDTTAM [MAGEA10] | 5.7 ± 0.17 | 5.47 ± 0.24 |  | 
PGSIIGPQQHFLEEKQASLWVQGD [CDC14A] | 4.04 ± 0.37 | 4.14 ± 0.4 |  | 
DAENQKNWLDPAKEIKKQVRSGAW [EPB41L3] | 3.55 ± 0.5 |  |  | 
IMNIEPAILVMHHSMKPHPAITAT [INTS3] | 2.24 ± 0.38 | 2.22 ± 0.16 |  | 
GDAHFDEDERWTNNFREYNLHRVA [MMP1] | 3.84 ± 0.18 | 4.11 ± 0.33 |  | 
RFPLDSAQDPDVGTNTVSFYTLSP [PCDHGC5] | 3.68 ± 0.15 | 3.88 ± 0.12 |  | 
EVEKRGINGSEGDGAEIAEKFVFF [DYNC2LI1] | 3.8 ± 0.33 | 4.41 ± 0.34 |  | 
TVDLELELQIELLRETKRKYESVL [ARFIP2] | 2.71 ± 0.19 | 2.91 ± 0.22 |  | 
DLAKTGCVDLTITNLLEGAVAFMP [AUP1] | 2.21 ± 0.11 | 2.05 ± 0.32 |  | 
SRHVTTRAALTYTSLEITILTSQP [M1AP] | 2.63 ± 0.51 | 2.6 ± 0.65 |  | 
RLLSDATVEKDESHAGKVVLRSWY [FAM50A] | 3.02 ± 0.11 | 3.26 ± 0.12 |  | 
LDRFLSLEPVKKSRLQLLGATCMF [CCND1] | 2.42 ± 0.36 | 2.39 ± 0.14 |  | 

Sequence | protein stability index [1] | protein stability index [2] | protein stability index (treatment: DMSO, c terminus: native) | protein stability index (treatment: MLN4924 1 uM, 8 h, c terminus: native)
SGRLSASWEPLSGPSTPSPVAAQF [FCHO1] | 3.14 ± 0.25 | 3.02 ± 0.23 |  | 
EYQLFEELGKGAFSVVRRCMKIPT [CAMK2D] | 2.07 ± 0.27 | 2.2 ± 0.54 |  | 
HVHDPHGQVIWGMSWAKLARQATN [FBXO39] | 2.58 ± 0.32 | 2.94 ± 0.21 |  | 
LGQIVLLPAEARERSRGRSISRGR [MATN2] | 3.86 ± 0.45 | 4.21 ± 0.18 |  | 
AEQRGDNALKDARAKLDELEGALH [KRT71] | 5.16 ± 0.2 | 5.37 ± 0.29 |  | 
TYLRLIVDHHGTAQLQALRQKEVD [INTS3] | 2.27 ± 0.2 | 2.35 ± 0.3 |  | 
HQRIPQSVRILGSLVAILLVFLIT [SLC29A1] | 2.1 ± 0.37 | 2.33 ± 0.25 |  | 
PGNRTCTGTSKRYQLCRVQECPPD [ADAMTSL2] | 3.61 ± 0.32 | 3.69 ± 0.045 |  | 
PQQQHHKAKRNRTCRPPSSSESSS [ANKRD17] | 4.86 ± 0.16 | 4.92 ± 0.29 |  | 
HCTVKLRQTTGLMEYCLEVIKEND [TRIM9] | 3.07 ± 0.29 | 3.32 ± 0.37 |  | 
DNLLPGMQPSKPQQPSLNTMIQQQ [CLINT1] | 4.38 ± 0.29 | 4.45 ± 0.28 |  | 
IRTSERVTLIVDNTRFVVDPSIFT [BTBD10] | 2.35 ± 0.41 | 2.36 ± 0.45 |  | 
LSQMGAQSSGKILLCPLCQEEEQA [TRIM15] | 3.85 ± 0.5 | 4.39 ± 0.23 |  | 
PAAGESLSGTRESLAQGPDAATTD [TBC1D10A] | 5.36 ± 0.32 | 5.29 ± 0.13 |  | 
AFEAARDLDACALVRGHRRRLLRR [ZSWIM9] | 4.5 ± 0.2 | 4.45 ± 0.21 |  | 
IQKNYECANFGDQGITMGCWDMYR [LOXL2] | 2.06 ± 0.45 | 2.13 ± 0.25 |  | 
TGQSKIYSYMSPNKCSGMRFPLQE [KMT5A] | 2.28 ± 0.29 | 2.27 ± 0.11 |  | 
FPKSEQVYLHFLSVVTEDGPEPKD [ZNF232] | 2.58 ± 0.5 | 3.39 ± 0.56 |  | 
RRMTVVGRLEGLIQPDDLINQLTF [FAF2] | 2.36 ± 0.2 | 2.33 ± 0.49 |  | 
LDLMKEWIAHSEKLPRKVLQHVSE [SPACA9] | 3 ± 0.36 | 3.67 ± 0.47 |  | 
